The values below are quoted from earlier work in paper PMC10229114.

In one data set the target is SDF-1α (Homo sapiens) (UniProt P48061).
A further data set has as its target SLy1 SAM (Homo sapiens) (UniProt O75995).

Chain of SLy1 SAM (O75995 252-316): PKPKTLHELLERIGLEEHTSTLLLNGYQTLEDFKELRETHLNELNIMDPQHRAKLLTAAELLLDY
Chain of SDF-1α (P48061 24-88): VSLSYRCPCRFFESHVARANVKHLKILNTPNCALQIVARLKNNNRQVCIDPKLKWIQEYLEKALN

SDF-1α (from UniProt P48061): the Kd (in general, the free concentration of one partner at which half of the binding sites on the other are occupied at equilibrium, for simple one-to-one binding) with SDF-1α (Homo sapiens) is 150 µM.
SLy1 SAM (from UniProt O75995): the Kd with SLy1 SAM (Homo sapiens) was 117 µM.
